Results on 53 substances are retold here after patent US10253076B2, “Peptides and combination of peptides for use in immunotherapy against ovarian cancer and other cancers” (immatics biotechnologies GmbH, priority 2015, dated 2019).

For the assay, the target named is HLA-A*02:01 (Homo sapiens, UniProt P04439, D140Y/D185E/D98H/E176V/E277Q/G131W/G231S/I119V/I121R/I166T/I218V/L300P/L318F/N151K/N90K/P208A/P217A/Q86G/Q94H/R138H/R169H/T345S). The assay can be described thus: MHC binding assay (UV-ligand exchange, beta2m ELISA, peptide exchange yield). The note with it: binding of HLA-class I restricted peptides to HLA-A*02:01, ranged by peptide exchange yield (UV-ligand exchange, β2m ELISA). The method in brief:
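Peptide–HLA-A*02:01 complexes made by UV-mediated exchange of a photocleavable peptide with the test peptide. Exchange products diluted 100-fold on streptavidin-coated plates, 1 h at 37°C, then HRP anti-β2m 1 h at 37°C; TMB read at 450 nm to give exchange yield.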
For orientation: In an ELISA, binding on a coated surface is turned into a signal by an enzyme label.

“543 (GLLPTPITQQASL; listed as Homo sapiens) [compound 543]”: the Peptide exchange entry is reported as “″+++″ (≥50% = +++)”.

In the case of “27 (ILADIVISA; listed as Homo sapiens) [compound 27]”, the Peptide exchange result is listed as “″+++″ (≥50% = +++)”. In the case of “568 (TLYDIAHTPGV; listed as Homo sapiens) [compound 568]”, the Peptide exchange entry is “″++++″ (≥75% = ++++)”.

With “188 (GLFPVTPEAV; listed as Homo sapiens) [compound 188]”, the Peptide exchange result is recorded as “″+++″ (≥50% = +++)”. On to “229 (RLPGPLGTV; listed as Homo sapiens) [compound 229]”, for which the Peptide exchange result was “″++″ (≥20% = ++)”. In the case of “357 (SMHDLVLQV; listed as Homo sapiens) [compound 357]”, the Peptide exchange entry was “″+++″ (≥50% = +++)”. The value for “256 (FLPPEHTIVYI; listed as Homo sapiens) [compound 256]” was “″+++″ (≥50% = +++)”. For the substance “252 (LLIGTDVSL; listed as Homo sapiens) [compound 252]”, the Peptide exchange result is “″+++″ (≥50% = +++)”.

As to “197 (ALGPEGGRV; listed as Homo sapiens) [compound 197]”, the Peptide exchange entry is on record as “″++″ (≥20% = ++)”.

As to “300 (ALLGQTFSL; listed as Homo sapiens) [compound 300]”, the Peptide exchange result was “″+++″ (≥50% = +++)”. For “279 (ALWGGTQPLL; listed as Homo sapiens) [compound 279]”, the Peptide exchange result is given as “″++″ (≥20% = ++)”. The same measure for “503 (SLNHFTHSV; listed as Homo sapiens) [compound 503]”: “″+++″ (≥50% = +++)”.

For the substance “465 (QLCDLNAEL; listed as Homo sapiens) [compound 465]”, the Peptide exchange result was “″+++″ (≥50% = +++)”.

“616 (VLIDEVESL; listed as Homo sapiens) [compound 616]”: the Peptide exchange result is recorded as “″+++″ (≥50% = +++)”. “202 (ALLDQQGSRWTL; listed as Homo sapiens) [compound 202]”: the Peptide exchange result was “″+++″ (≥50% = +++)”. The same measure for “175 (YLFENISQL; listed as Homo sapiens) [compound 175]”: “″+++″ (≥50% = +++)”. Take “355 (SIQQSIERLLV; listed as Homo sapiens) [compound 355]”: the Peptide exchange entry is on record as “″++″ (≥20% = ++)”. The value for “192 (KMLDGASFTL; listed as Homo sapiens) [compound 192]” was “″+++″ (≥50% = +++)”; that for “181 (LLWAGTAFQV; listed as Homo sapiens) [compound 181]” was “″+++″ (≥50% = +++)”. The value for “488 (FLAEDPKVTL; listed as Homo sapiens) [compound 488]” was “″+++″ (≥50% = +++)”. The value for “452 (ILLEHGADPNL; listed as Homo sapiens) [compound 452]” was “″+++″ (≥50% = +++)”. As to “343 (SLLEVNEESTV; listed as Homo sapiens) [compound 343]”, the Peptide exchange entry is “″+++″ (≥50% = +++)”. The value for “455 (SLLKEPQKVQL; listed as Homo sapiens) [compound 455]” was “″++″ (≥20% = ++)”.

As to “182 (MLLEAPGIFL; listed as Homo sapiens) [compound 182]”, the Peptide exchange result is given as “″+++″ (≥50% = +++)”. The value for “119 (FLYIGDIVSL; listed as Homo sapiens) [compound 119]” was “″++++″ (≥75% = ++++)”; that for “367 (SLQNHNHQL; listed as Homo sapiens) [compound 367]” was “″+++″ (≥50% = +++)”. For the substance “316 (ILLERLWYV; listed as Homo sapiens) [compound 316]”, the Peptide exchange result is listed as “″+++″ (≥50% = +++)”. The same measure for “431 (SLVNVVPKL; listed as Homo sapiens) [compound 431]”: “″++″ (≥20% = ++)”. On to “530 (VMYADIGGMDI; listed as Homo sapiens) [compound 530]”, for which the Peptide exchange result was “″+++″ (≥50% = +++)”. Regarding “347 (SLFKHDPAAWEA; listed as Homo sapiens) [compound 347]”, the Peptide exchange result is on record as “″++++″ (≥75% = ++++)”. The value for “449 (KLAEGLDIQL; listed as Homo sapiens) [compound 449]” was “″+++″ (≥50% = +++)”; that for “233 (VLSETLYEL; listed as Homo sapiens) [compound 233]” was “″++″ (≥20% = ++)”; that for “433 (AMLNEPWAV; listed as Homo sapiens) [compound 433]” was “″+++″ (≥50% = +++)”. The value for “436 (HLAEVSAEV; listed as Homo sapiens) [compound 436]” was “″+++″ (≥50% = +++)”; that for “265 (LLFGGTKTV; listed as Homo sapiens) [compound 265]” was “″++″ (≥20% = ++)”.

In the case of “205 (SLYPGTETMGL; listed as Homo sapiens) [compound 205]”, the Peptide exchange entry is “″+++″ (≥50% = +++)”. Regarding “617 (ALMYESEKVGV; listed as Homo sapiens) [compound 617]”, the Peptide exchange entry is “″+++″ (≥50% = +++)”. The value for “512 (SLSEIVPCL; listed as Homo sapiens) [compound 512]” was “″+++″ (≥50% = +++)”; that for “194 (ALPLFVITV; listed as Homo sapiens) [compound 194]” was “″+++″ (≥50% = +++)”; that for “380 (TLIEDEIATI; listed as Homo sapiens) [compound 380]” was “″++″ (≥20% = ++)”.

Turning to “272 (ALGNTVPAV; listed as Homo sapiens) [compound 272]”, the Peptide exchange result is “″+++″ (≥50% = +++)”. Turning to “92 (YLIPFTGIVGL; listed as Homo sapiens) [compound 92]”, the Peptide exchange result is recorded as “″++″ (≥20% = ++)”.

As to “253 (GLDAATATV; listed as Homo sapiens) [compound 253]”, the Peptide exchange entry is “″++″ (≥20% = ++)”. The same measure for “249 (LLDGFLVNV; listed as Homo sapiens) [compound 249]”: “″+++″ (≥50% = +++)”; for “487 (LLINSVFHV; listed as Homo sapiens) [compound 487]”: “″+++″ (≥50% = +++)”. Take “376 (AMFESSQNVLL; listed as Homo sapiens) [compound 376]”: the Peptide exchange entry was “″++″ (≥20% = ++)”.

In the case of “262 (LLWGDLIWL; listed as Homo sapiens) [compound 262]”, the Peptide exchange result was “″+++″ (≥50% = +++)”.

With “501 (LLDPNVKSIFV; listed as Homo sapiens) [compound 501]”, the Peptide exchange result is given as “″+++″ (≥50% = +++)”.

Consider “516 (AVGPASILKEV; listed as Homo sapiens) [compound 516]”, for which the Peptide exchange result was “″++″ (≥20% = ++)”. The value for “32 (KLDDLTQDLTV; listed as Homo sapiens) [compound 32]” was “″++″ (≥20% = ++)”. In the case of “514 (ILVDWLVQV; listed as Homo sapiens) [compound 514]”, the Peptide exchange entry is “″+++″ (≥50% = +++)”. The value for “15 (VLLTFKIFL; listed as Homo sapiens) [compound 15]” was “″++″ (≥20% = ++)”. Turning to “142 (FLFATPVFI; listed as Homo sapiens) [compound 142]”, the Peptide exchange result was “″+++″ (≥50% = +++)”.
